Test results as given in doi:10.1101/327866 (bioRxiv, 2018).

Tests used:
[1] = molecular target: Ara h 2, purified natural peanut allergen (Arachis hypogaea (peanut), cultivar not …, UniProt Q6PSU2); assay: BLI
[2] = molecular target: Ara h 3, purified natural peanut allergen (Arachis hypogaea (peanut), cultivar not …, UniProt O82580); assay: BLI

B1: PA13P1H08 variant: heavy chain reverted to the inferred naive rearrangement, native light chain (antibody, V domains shown)
VH: QVQLVESGGGVVQPGRSLRLSCAASGFTFSSYGMHWVRQAPGKGLEWVAVISYDGSNKYYADSVKGRFTISRDNSKNTLYLQMNSLRAEDTAVYYCAKVLDYSNYYYYYGMDVWGQGTTVTVSS
VL: EIVLTQSPGTLSLSPGGRGTLSCRTSQTINNAHLAWYQHKPGQAPRLLIYGSSERATGVPDRFSGSGSGSDFTLTISSLEAEDFAVYYCQHYGRSPPYTFGPGTKLDIK
[1]
  binding result: binds
[2]
  binding result: binds

B2: PA13P1H08 variant: only the heavy chain CDR1 reverted to the inferred naive rearrangement, native light chain (antibody, V domains shown)
VH: QVQLVNSGGGVVQPGRSLRLSCVASGFTFSSYGIHWVRQAPGKGLEWVAVISNDGEKSESADSVKGRFTPSRDNSKNTVYLQMNNLRVEDTAVYYCAKVLDYSRYSYYYGMDVWGQGTTVIVSS
VL: EIVLTQSPGTLSLSPGGRGTLSCRTSQTINNAHLAWYQHKPGQAPRLLIYGSSERATGVPDRFSGSGSGSDFTLTISSLEAEDFAVYYCQHYGRSPPYTFGPGTKLDIK
[1]
  binding result: binds
[2]
  binding result: binds

B3: PA13P1H08 variant: only the heavy chain framework regions reverted to the inferred naive rearrangement, native light chain (antibody, V domains shown)
VH: QVQLVESGGGVVQPGRSLRLSCAASGFTFSTFGMHWVRQAPGKGLEWVAVISNDGEKSYYADSVKGRFTISRDNSKNTLYLQMNSLRAEDTAVYYCAKVLDYSRYSYYYGMDVWGQGTTVTVSS
VL: EIVLTQSPGTLSLSPGGRGTLSCRTSQTINNAHLAWYQHKPGQAPRLLIYGSSERATGVPDRFSGSGSGSDFTLTISSLEAEDFAVYYCQHYGRSPPYTFGPGTKLDIK
[1]
  binding result: binds
[2]
  binding result: binds

B4: PA13P1H08 variant: only the heavy chain CDR3 reverted to the inferred naive rearrangement, native light chain (antibody, V domains shown)
VH: QVQLVNSGGGVVQPGRSLRLSCVASGFTFSTFGIHWVRQAPGKGLEWVAVISNDGEKSESADSVKGRFTPSRDNSKNTVYLQMNNLRVEDTAVYYCAKVLDYSNYYYYYGMDVWGQGTTVIVSS
VL: EIVLTQSPGTLSLSPGGRGTLSCRTSQTINNAHLAWYQHKPGQAPRLLIYGSSERATGVPDRFSGSGSGSDFTLTISSLEAEDFAVYYCQHYGRSPPYTFGPGTKLDIK
[1]
  binding result: binds
[2]
  binding result: binds

B5: PA13P1H08 variant: only the heavy chain CDR2 reverted to the inferred naive rearrangement, native light chain (antibody, V domains shown)
VH: QVQLVNSGGGVVQPGRSLRLSCVASGFTFSTFGIHWVRQAPGKGLEWVAVISYDGSNKESADSVKGRFTPSRDNSKNTVYLQMNNLRVEDTAVYYCAKVLDYSRYSYYYGMDVWGQGTTVIVSS
VL: EIVLTQSPGTLSLSPGGRGTLSCRTSQTINNAHLAWYQHKPGQAPRLLIYGSSERATGVPDRFSGSGSGSDFTLTISSLEAEDFAVYYCQHYGRSPPYTFGPGTKLDIK
[1]
  binding result: binds
[2]
  binding result: binds
